# Assay results reported in paper PMC8290868 (Cell Discovery, 2021).
# B1: 7B8 Fab fragment (Fab, V domains shown)
# VH: QVQLVESGGGVVQPGRSLRLSCAASGFIFSSYGMHWVRQAPGKGLEWVAVIWFDGSNKYYADSVKGRFTISRDNSKNTLYLQMNSLRAEDTAVYYCARETVSYGMDVWGQGTTVTVSS
# VL: NIQMTQSPSAMSASVGDRVTITCRARQGISNYLAWFQQKPGKVPKHLIYAASSLLSGVPSRFSGSGSETEFTLTISSLQPEDFATYYCLQHNSYPYTFGQGTKLEIK
# notes: also called Ab4
# Target: T1, SARS-CoV-2 S protein extracellular domain (S-ECD), prefusion-stabilised trimer (SARS-CoV-2, Wuhan-Hu-1 (wild type), UniProt P0DTC2, proline substitution at residue 986 | proline substitution at residue 987 | …)
# T1 construct: also called trimeric SARS-CoV-2 S protein; S trimer
# Test: cryo-EM structure
# Conditions: both partners purified
binder,measurement,value
B1,binding result,binds
